Biological target: the molecule itself
Assay: crystal structure

B1: Kitasatospora setae enoyl-CoA carboxylase/reductase (ECR), wild type (enzyme)
chain: MQEILDAILSGDAASADYAALALPESYRAVTLHKGEERMFDGLASRDKDPRKSLHLDDVPLPELGPGEALVAVMASSVNYNTVWSSIFEPVSTFGFLERYGRLSPLTARHDLPYHVLGSDLAGVVLRTGAGVNAWKPGDEVVAHCLSVELESPDGHNDTMMDPEQRIWGFETNFGGLAQLALVKTNQLLPKPKHLTWEEAASPGLVNSTAYRQLVSRNGAGLKQGDNVLIWGASGGLGSYATQYALAGGATPICVVSSPRKADICRAMGAEAIIDRSAEGYRFWKDEHHQDPREWKRLGGKIREFTGGEDVDIVFEHPGRETFGASVYVTRKGGTIVTCASTSGYMHQYDNRYLWMSLKRIVGSHFANYREAFEANRLVAKGKIHPTLSKVYALEETGQAALDVHHNKHQGKVGVLCLAPREGLGVTDPELRSKHLTKINAFRNV
- stoichiometry N: 4
